In patent publication US20090291088A1 (Biogen, published 2009):

How the values were obtained:
[1] = molecular target: T1, human INSR(28-956)-His10 (human, UniProt P06213 28-956); assay: ELISA on coated rh-INSR
T1 construct: range 28-956; Bought (R&D Systems 1544-IR); also called rh-INSR; soluble insulin receptor
Method: ELISA assays were performed to determine specific binding of the Fab fragment antibodies to soluble IGF-1R over the insulin receptor. […] Color development was stopped by addition of 4NH₂SO₄ and optical density is measured at 450 nm using a Molecular Devices plate reader and binding curves are generated.

[2] = molecular target: T2, hIGF-1R-Fc mutant SD017 (I650S) (human, UniProt P08069 31-933); assay: SPR, M13-C06 Fab over captured mutant
T2 construct: not shown: C-terminal human IgG1-Fc tag
Method: (§1) After, completion of the receptor-Fc loading step, flow rates were elevated to 5 μl/min. […] At the end of each sensorgram, the flow rate was elevated to 30 μl/min and the chip surface was regenerated by 2×10 μL injections of 0.1 M glycine, pH 2.

[3] = molecular target: T3, hIGF-1R-Fc mutant SD010 (G271D) (human, UniProt P08069 31-933); assay: SPR, M13-C06 Fab over captured mutant
T3 construct: not shown: C-terminal human IgG1-Fc tag
Method: as §1

[4] = molecular target: T4, hIGF-1R-Fc mutant SD013 (D405K) (human, UniProt P08069 31-933); assay: SPR, M13-C06 Fab over captured mutant
T4 construct: not shown: C-terminal human IgG1-Fc tag
Method: as §1

[5] = molecular target: T5, hIGF-1R-Fc mutant SD001 (Y28A) (human, UniProt P08069 31-933); assay: SPR, M13-C06 Fab over captured mutant
T5 construct: not shown: C-terminal human IgG1-Fc tag
Method: as §1

[6] = molecular target: T6, hIGF-1R-Fc mutant SD008 (S257F) (human, UniProt P08069 31-933); assay: SPR, M13-C06 Fab over captured mutant
T6 construct: not shown: C-terminal human IgG1-Fc tag
Method: as §1

[7] = molecular target: T7, hIGF-1R-Fc mutant SD009 (E264K) (human, UniProt P08069 31-933); assay: SPR, M13-C06 Fab over captured mutant
T7 construct: not shown: C-terminal human IgG1-Fc tag
Method: as §1

[8] = molecular target: T8, hIGF-1R-Fc mutant SD005 (A217T) (human, UniProt P08069 31-933); assay: SPR, M13-C06 Fab over captured mutant
T8 construct: not shown: C-terminal human IgG1-Fc tag
Method: as §1

[9] = molecular target: T9, hIGF-1R-Fc mutant SD007 (N237G) (human, UniProt P08069 31-933); assay: SPR, M13-C06 Fab over captured mutant
T9 construct: not shown: C-terminal human IgG1-Fc tag
Method: as §1

[10] = molecular target: T10, hIGF-1R-Fc mutant SD012 (E303G) (human, UniProt P08069 31-933); assay: SPR, M13-C06 Fab over captured mutant
T10 construct: not shown: C-terminal human IgG1-Fc tag
Method: as §1

[11] = molecular target: T11, hIGF-1R-Fc mutant SD011 (G285S_S286T) (human, UniProt P08069 31-933); assay: SPR, M13-C06 Fab over captured mutant
T11 construct: not shown: C-terminal human IgG1-Fc tag
Method: as §1

[12] = molecular target: T12, hIGF-1R-Fc mutant SD016 (D531Q_V532N) (human, UniProt P08069 31-933); assay: SPR, M13-C06 Fab over captured mutant
T12 construct: not shown: C-terminal human IgG1-Fc tag
Method: as §1

[13] = molecular target: T13, hIGF-1R-Fc mutant SD014 (K412A_A413Q) (human, UniProt P08069 31-933); assay: SPR, M13-C06 Fab over captured mutant
T13 construct: not shown: C-terminal human IgG1-Fc tag
Method: as §1

[14] = molecular target: T14, IGF-1R (soluble, construct not stated) (human, UniProt P08069 31-932, limits assumed); assay: Fab affinity for IGF-1R, method not given; Fab, not IgG; method and IGF-1R construct not stated
T14 construct: whole entry named; also called Solube IGF-1R Protein; soluble recombinant human IGF-1R

[15] = molecular target: T15, hIGF-1R-Fc mutant SD015 (H464E) (human, UniProt P08069 31-933); assay: SPR (Biacore): M13-C06 injected over SD015 captured on an immobilised M13-C06 surface
T15 construct: not shown: C-terminal human IgG1-Fc tag
Method: as §1

[16] = molecular target: T16, hIGF-1R-Fc mutant SD113 (E570A, I571T) (human, UniProt P08069 31-933); assay: SPR, Fab over captured mutant
T16 construct: not shown: C-terminal human IgG1-Fc tag

[17] = molecular target: T17, hIGF-1R-Fc mutant SD102 (E459A, S460A) (human, UniProt P08069 31-933); assay: SPR, Fab over captured mutant
T17 construct: not shown: C-terminal human IgG1-Fc tag

[18] = molecular target: T18, hIGF-1R-Fc mutant SD103 (D461A, V462T) (human, UniProt P08069 31-933); assay: SPR, Fab over captured mutant
T18 construct: not shown: C-terminal human IgG1-Fc tag

[19] = molecular target: T19, hIGF-1R-Fc mutant SD108 (H480E) (human, UniProt P08069 31-933); assay: SPR, Fab over captured mutant
T19 construct: not shown: C-terminal human IgG1-Fc tag

[20] = molecular target: T20, hIGF-1R-Fc mutant SD109 (Y482A, R483W) (human, UniProt P08069 31-933); assay: SPR, Fab over captured mutant
T20 construct: not shown: C-terminal human IgG1-Fc tag

[21] = molecular target: T21, hIGF-1R-Fc mutant SD104 (H464A) (human, UniProt P08069 31-933); assay: SPR, Fab over captured mutant
T21 construct: not shown: C-terminal human IgG1-Fc tag

B1: M13-C06 Fab (Fab, V domains shown)
VH: EVQLLESGGGLVQPGGSLRLSCAASGFTFSIYRMQWVRQAPGKGLEWVSGISPSGGTTWYADSVKGRFTISRDNSKNTLYLQMNSLRAEDTAVYYCARWSGGSGYAFDIWGQGTMVTVSS
VL: DIQMTQSPLSLSASVGDRVTITCQASRDIRNYLNWYQQKPGKAPKLLIYDASSLQTGVPSRFGGSGSGTDFSFTIGSLQPEDIATYYCQQFDSLPHTFGQGTKLEIK
notes: Human Fab from a phage library, kappa light chain
- binding result [1]: no binding (tested: 2 µM-0.2 nM)
- Biacore Relative RUmax [2]: 2
- Biacore Relative RUmax [3]: 0.8
- Biacore Relative RUmax [4]: 0.7
- Biacore Relative RUmax [5]: 0.6
- Biacore Relative RUmax [6]: 1.5
- Biacore Relative RUmax [7]: 0.6
- Biacore Relative RUmax [8]: 0.9
- Biacore Relative RUmax [9]: 1.3
- Biacore Relative RUmax [10]: 0.3
- Biacore Relative RUmax [11]: 1.8
- Biacore Relative RUmax [12]: 2
- Biacore Relative RUmax [13]: 0.6
- Kd [14]: 1.3 nM
- binding result [15]: no binding (tested: 10 nM)
- binding result [16]: no binding (tested: 10 nM)
- binding result [17]: no binding (tested: 10 nM)
- binding result [18]: no binding (tested: 10 nM)
- binding result [19]: no binding (tested: 10 nM)
- binding result [20]: no binding (tested: 10 nM)
- binding result [21]: no binding (tested: 10 nM)
